In experiment [1] the target is T1, SARS-CoV-2 S蛋白 (SARS-CoV-2, UniProt P0DTC2 16-1213). The experiment in a line: cell-based or functional assay.
A further experiment deals with T2, SARS-CoV-2 S1蛋白 (SARS-CoV-2, UniProt P0DTC2 16-685).
T2 construct: domain: S1
The experiment can be described thus: ELISA.

The target in experiment [2] is T1, SARS-CoV-2 S蛋白. The experiment in a line: ELISA, antibody on S protein.
A further experiment deals with T3, SARS-CoV-2 S2蛋白 (SARS-CoV-2, UniProt P0DTC2 686-1213).
T3 construct: domain: S2
The experiment can be described thus: ELISA, antibody on S2 protein.

B1: 全人单克隆抗体17-2 (antibody, V domains shown)
VH: QLQLQESGPGLVKASETLSLTCTVSSGSVSSDSYYWSWIRQPPGKGLEWIGYIYYSGSTNYNPSLKSRVTMSVDTSKNQFSLKLDSVTAADTAAYYCARGPLGLYYYYMDVWGKGTTVTVSS
VL: DIQMTQSPSSLSASVGDRVTITCRASQSINNYLNWYQQKPGKAPKLLIYAASSLQSGVPSRFSGSGSGTDFALTISGLQPEDFATYYCQESNSSPFTFGPGTKVDIK
notes: also called 17-2抗体
As to B1, the “假病毒中和实验 IC50” value with SARS-CoV-2 S蛋白 [1] was determined as 0.587 µg/mL. Further, in the experiment with SARS-CoV-2 S1蛋白, the binding result was “no binding”. Moreover, the results for the EC50 with SARS-CoV-2 S蛋白 [2] and in the experiment with SARS-CoV-2 S2蛋白 were 0.034 µg/mL and 0.038 µg/mL, respectively.

Values taken from patent publication CN112661841A (GUANGZHOU 8TH PEOPLES HOSPITAL, dated 2021).
